The values below come from patent US20220119509A1 (ARGENX, published 2022).

Assay [1] concerns the target T1, mouse C2 (mouse, UniProt P21180 19-760, limits assumed).
T1 sequence (looked up): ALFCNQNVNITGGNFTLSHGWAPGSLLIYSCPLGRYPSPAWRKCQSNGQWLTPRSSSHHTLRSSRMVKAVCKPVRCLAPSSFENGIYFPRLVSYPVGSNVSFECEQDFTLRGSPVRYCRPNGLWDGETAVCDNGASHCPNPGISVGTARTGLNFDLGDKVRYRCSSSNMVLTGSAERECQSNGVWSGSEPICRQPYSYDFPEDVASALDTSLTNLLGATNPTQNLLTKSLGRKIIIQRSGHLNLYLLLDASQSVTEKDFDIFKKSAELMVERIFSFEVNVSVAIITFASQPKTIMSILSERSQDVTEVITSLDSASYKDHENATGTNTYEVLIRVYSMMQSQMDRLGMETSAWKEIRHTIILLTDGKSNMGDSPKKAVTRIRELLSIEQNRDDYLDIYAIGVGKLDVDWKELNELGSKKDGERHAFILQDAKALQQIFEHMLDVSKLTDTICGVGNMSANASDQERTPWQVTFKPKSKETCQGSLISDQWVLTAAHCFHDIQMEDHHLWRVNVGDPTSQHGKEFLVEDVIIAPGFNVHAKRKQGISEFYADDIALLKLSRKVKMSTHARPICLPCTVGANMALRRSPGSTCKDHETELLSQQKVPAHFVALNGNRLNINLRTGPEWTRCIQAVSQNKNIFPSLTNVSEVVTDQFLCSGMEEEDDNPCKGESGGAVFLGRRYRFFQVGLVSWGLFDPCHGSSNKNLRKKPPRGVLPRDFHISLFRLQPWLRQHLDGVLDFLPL
Briefly: not described.

Assay [2] addresses T2, human C2b fragment (huC2b) (human, UniProt P06681 21-243).
T2 construct: Supernatant of transfected HEK293 cells; not shown: FLAG tag (the construct is detected with anti-FLAG)
T2 sequence: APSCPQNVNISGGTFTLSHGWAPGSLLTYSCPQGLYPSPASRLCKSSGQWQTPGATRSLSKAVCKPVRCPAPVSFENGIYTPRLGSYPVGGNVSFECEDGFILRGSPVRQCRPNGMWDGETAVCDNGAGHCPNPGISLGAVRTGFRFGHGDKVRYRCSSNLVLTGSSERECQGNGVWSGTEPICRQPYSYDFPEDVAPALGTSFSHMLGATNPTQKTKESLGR
The assay can be described thus: sandwich ELISA: coated anti-C2-5F2.4, HEK293 supernatant diluted 20 times, detection with anti-FLAG. A general note: An ELISA detects its analyte on a solid surface through an enzyme-linked reagent.

Assay [3] deals with T3, wild type C2 with C-terminal FLAG tag (human, UniProt P06681 21-752).
T3 construct: Secreted into the supernatant of transfected HEK293T cells; not shown: C-terminal FLAG tag
T3 sequence: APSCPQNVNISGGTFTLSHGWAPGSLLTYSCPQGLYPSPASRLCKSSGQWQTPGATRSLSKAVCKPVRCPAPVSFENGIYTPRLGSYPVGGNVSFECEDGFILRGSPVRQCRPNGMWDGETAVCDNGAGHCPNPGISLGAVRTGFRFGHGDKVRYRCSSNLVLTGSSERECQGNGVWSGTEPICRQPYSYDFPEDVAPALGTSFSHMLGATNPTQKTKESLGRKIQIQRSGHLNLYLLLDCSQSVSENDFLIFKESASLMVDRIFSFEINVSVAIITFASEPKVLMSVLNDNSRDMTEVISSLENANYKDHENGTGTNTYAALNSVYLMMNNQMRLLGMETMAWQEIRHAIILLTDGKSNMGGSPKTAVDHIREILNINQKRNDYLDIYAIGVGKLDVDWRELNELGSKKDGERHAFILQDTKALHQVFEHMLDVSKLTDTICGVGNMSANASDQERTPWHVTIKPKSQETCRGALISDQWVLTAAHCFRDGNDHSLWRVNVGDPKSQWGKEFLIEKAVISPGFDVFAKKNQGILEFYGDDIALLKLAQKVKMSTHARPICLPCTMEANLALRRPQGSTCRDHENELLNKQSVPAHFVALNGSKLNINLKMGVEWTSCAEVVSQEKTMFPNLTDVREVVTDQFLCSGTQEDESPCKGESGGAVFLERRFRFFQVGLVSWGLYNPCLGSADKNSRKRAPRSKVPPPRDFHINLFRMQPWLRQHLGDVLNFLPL
The description is as above. The protocol:
FIG. 12 depicts results obtained with a domain swap ELISA performed with anti-C2-5F2.4. Anti-C2-5F2.4 mAb (human IgG4 S241P VH4/VL3 LC-13/03-163A Bioceros) was used for coating, plates were incubated with 20 times diluted supernatant of HEK293 transfectants, and binding was detected by an anti-FLAG Ab. Representative results from two independent experiments with similar outcome.
Next, the recognition of the swap mutants by the anti-C2-5F2.4 antibody was investigated. To this effect, microplates (Maxisorp, NUNC, Cat #439454) were coated overnight with 2 μg/mL anti-C2-5F2.4 in 100 μL PBS. Plates were washed 4 times with PBS with 0.05% Tween-20 and blocked with 200 μL PBS with 0.1% Tween-20 with 1% bovine serum albumin (BSA) (PBST-BSA) for 1 hour at RT. After washing, 100 μL culture supernatant containing mutants were added 20× diluted in PBST-BSA and incubated for 2 hours at RT with agitation. After washing, as detection antibody 1 μg/mL biotinylated anti-FLAG (clone M2, Sigma-Aldrich) was added in PBST-BSA for 1 hour at RT. The plate was washed and 1 μg/mL streptavidin-POD conjugate (Roche, Cat #11089153001) was added and incubated in the dark for 30 minutes. […] Absorbance was measured at 450 nm on a microplate reader (BioRad, iMark Microplate reader).

The target in assay [4] is T4, huC2b with mouse S2 (huC2b-mS2) (mouse, UniProt P06681 21-243 (human entry)).
T4 chain: T2 sequence with P70L, V73S, T81F, G85V, G91S, D99Q, G100D, I102T, Q110Y, M116L
The assay can be described thus: sandwich ELISA: coated anti-C2-5F2.4, HEK293 supernatant, detection with anti-FLAG.

Assay [5] concerns the target T5, human complement factor C2 (human, UniProt P06681 21-752).
T5 construct: also called human C2; recombinant human C2
T5 sequence: T3 sequence
Briefly: SPR (Biacore), C2 coated on the chip, Fab in solution, 1:1 model; C2 on the chip, Fab in solution.

Substitutions are numbered along the chain they refer to. Names may count otherwise.

B1: anti-C2-5F2.4 mAb (human IgG4 S241P VH4/VL3 LC-13/03-163A Bioceros) (antibody, V domains shown)
VH: EVQLVQSGAEVKKPGASVKVSCKASGYTFTDYNMDWVRQATGQGLEWIGDINPNYESTGYNQKFKGRATMTVNKSISTAYMELSSLRSEDTAVYYCAREDDHDAFAYWGQGTLVTVSS
VL: DNVLTQSPDSLAVSLGERATISCRASKSVRTSGYNYMHWYQQKPGQPPKLLIYLASNLKSGVPDRFSGSGSGTDFTLTISSLQAEDAATYYCQHSRELPYTFGQGTKLEIK
notes: Human IgG4 S241P; also called humanized 5F2.4
Take B1: the binding result in assay [1] is listed as “no binding”; in assay [2], “binds”; in assay [3], “binds”; in assay [4], “no binding”.

B2: Fab of ARGX-117 (Fab, V domains shown)
VH: B1 VH with N73D
VL: B1 VL
Turning to B2, the Kd in assay [5] is ~0.3 nM.

For orientation: Kd means the equilibrium constant for the complex coming apart. Low readings indicate a tighter complex, high ones a looser complex.
